Tests used:
[1] = biological target: acetyl-6-formylpterin-loaded MR1 C262S/hβ2m, P61769; assay: SPR; conditions: chain shown with the change;; parent: est. 2.0; read off a plot
[2] = biological target: peptide-loaded HLA-A*02:01/hβ2m (photolabile peptide KILGFVFJV); assay: SPR; conditions: chain shown with the change;; parent: est. 0.98; read off a plot

B1: human TAPBPR (TAP binding protein, related), luminal domain R105K; K211R; R270Q (protein)
chain: KPHPAEGQWRAVDVVLDCFLAKDGAHRGALASSEDRARASLVLKQVPVLDDGSLEDFTDFQGGTLAQDDPPIIFEASVDLVQIPQAEALLHADSSGKEVTCEISKYFLQMTETTVKTAAWFMANMQVSGGGPSISLVMKTPRVTKNEALWHPTLNLPLSPQGTVRTAVEFQVMTQTQSLSFLLGSSASLDCGFSMAPGLDLISVEWRLQHRGRGQLVYSWTAGQGQAVRKGATLEPAQLGMARDASLTLPGLTIQDEGTYICQITTSLYQAQQIIQLNIQASPKVRLSLANEALLPTLICDIAGYYPLDVVVTWTREELGGSPAQVSGASFSSLRQSVAGTYSISSSLTAEPGSAGATYTCQVTHISLEEPLGASTQVVPPERR
Kd (Log10 KD (µM)) [1]: 1.8

B2: human TAPBPR (TAP binding protein, related), luminal domain K211R; R270Q (protein)
chain: KPHPAEGQWRAVDVVLDCFLAKDGAHRGALASSEDRARASLVLKQVPVLDDGSLEDFTDFQGGTLAQDDPPIIFEASVDLVQIPQAEALLHADSSGKEVTCEISRYFLQMTETTVKTAAWFMANMQVSGGGPSISLVMKTPRVTKNEALWHPTLNLPLSPQGTVRTAVEFQVMTQTQSLSFLLGSSASLDCGFSMAPGLDLISVEWRLQHRGRGQLVYSWTAGQGQAVRKGATLEPAQLGMARDASLTLPGLTIQDEGTYICQITTSLYQAQQIIQLNIQASPKVRLSLANEALLPTLICDIAGYYPLDVVVTWTREELGGSPAQVSGASFSSLRQSVAGTYSISSSLTAEPGSAGATYTCQVTHISLEEPLGASTQVVPPERR
Kd (Log10 KD (µM)) [2]: 0.1

B3: human TAPBPR (TAP binding protein, related), luminal domain S104F; K211L; R270Q (protein)
chain: KPHPAEGQWRAVDVVLDCFLAKDGAHRGALASSEDRARASLVLKQVPVLDDGSLEDFTDFQGGTLAQDDPPIIFEASVDLVQIPQAEALLHADSSGKEVTCEIFRYFLQMTETTVKTAAWFMANMQVSGGGPSISLVMKTPRVTKNEALWHPTLNLPLSPQGTVRTAVEFQVMTQTQSLSFLLGSSASLDCGFSMAPGLDLISVEWRLQHLGRGQLVYSWTAGQGQAVRKGATLEPAQLGMARDASLTLPGLTIQDEGTYICQITTSLYQAQQIIQLNIQASPKVRLSLANEALLPTLICDIAGYYPLDVVVTWTREELGGSPAQVSGASFSSLRQSVAGTYSISSSLTAEPGSAGATYTCQVTHISLEEPLGASTQVVPPERR
Kd (Log10 KD (µM)) [2]: 0.09

Reference: PMC9956121
